Measurements: publication PMC3479090

Columns and labels:
[1] = molecular target: human CD1d construct with C-terminal 3C protease site and 6X-Histidine tag, loaded with α-galactosylceramide (form used for SPR), P15813;P61769; experiment: SPR; details: read off a plot; for koff: parent: est. 0.34; for kon: parent: est. 1.3e4
[2] = molecular target: Vα24+ NKT TCR clone J24L.17 (iNKT TCR, Vα24-Jα18/Vβ11) (human); experiment: SPR; BIAcore 3000; 300 RU of TCR captured on a Ni-NTA sensor chip, surface blocked with recombinant IgFc; CD1d–αGalCer injected (0, 0.037, 0.111, 0.333, 1, 3 µM for kinetics; series up to 27 µM) at 30 µl/min in 10 mM Hepes pH 7.4, 150 mM NaCl, 0.005% Tween-20; kinetic analysis, Langmuir 1:1 model
[3] = molecular target: Vα24+ NKT TCR clone J24L.17 (iNKT TCR, Vα24-Jα18/Vβ11) (human); experiment: SPR; same curves as the kinetic analysis plus 9 µM and 27 µM CD1d–αGalCer; TCR on the chip; equilibrium analysis

Substance: Vα24− TCR J24.N22 (Vα3.1-Jα18/Vβ11), soluble heterodimer with zippers and His tags S27A
- koff [1]: 0.51 s⁻¹
- kon [1]: 12000 M⁻¹ s⁻¹
- Kd [1]: 4200 nM

Substance: Vα24− TCR J24.N22 (Vα3.1-Jα18/Vβ11), soluble heterodimer with zippers and His tags N29A
- koff [1]: 0.89 s⁻¹
- kon [1]: 3700 M⁻¹ s⁻¹
- Kd [1]: 24000 nM

Substance: Vα24− TCR J24.N22 (Vα3.1-Jα18/Vβ11), soluble heterodimer with zippers and His tags S50A
- koff [1]: 0.38 s⁻¹
- kon [1]: 23000 M⁻¹ s⁻¹
- Kd [1]: 1700 nM

Substance: Vα24− TCR J24.N22 (Vα3.1-Jα18/Vβ11), soluble heterodimer with zippers and His tags N51A
- kon [1]: 12000 M⁻¹ s⁻¹
- Kd [1]: 3400 nM

Substance: Vα24− TCR J24.N22 (Vα3.1-Jα18/Vβ11), soluble heterodimer with zippers and His tags S97A
- koff [1]: 0.52 s⁻¹
- kon [1]: 30000 M⁻¹ s⁻¹
- Kd [1]: 1700 nM

Substance: human CD1d construct with C-terminal 3C protease site and 6X-Histidine tag, loaded with α-galactosylceramide (form used for SPR) (from UniProt P15813 20-335; P61769 21-119) (complex)
- Kd [2]: 2100 nM
- koff [2]: 0.414 s⁻¹
- kon [2]: 194000 M⁻¹ s⁻¹
- Kd [3]: 1900 nM
